The values below are quoted from earlier work in paper doi:10.1101/2024.02.22.581550.

In the series the target is Cys145 (UniProt position 145, PILIPCHRVVC).

For the substance “O6-alkylguanine-DNA alkyltransferase (hAGT; MGMT, methylated-DNA--protein-cysteine methyltransferase) (Homo sapiens)”, the pKa result is given as “∼5”.
